molecular target: Histone H3K9me3 peptide (Homo sapiens) (UniProt P68431); experiment: not given; settings: cited from earlier work

Chain of Cbx3 chromodomain (Q13185 30-88): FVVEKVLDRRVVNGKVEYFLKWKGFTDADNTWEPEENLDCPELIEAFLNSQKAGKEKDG

| Substance | Kd [µM] |
| --- | --- |
| Cbx3 chromodomain (from UniProt Q13185) | 15 |

molecular target: human Cbx3 chromodomain (residues 29–86) (human) (UniProt Q13185); experiment: ITC; peptide solution (1–2 mM) injected into the cell with Cbx3 chromodomain (40–100 mM [sic]) in 20 mM Tris–HCl, pH 7.5, 150 mM NaCl; one-site binding model; settings: not given
Sequence (Q13185 29-86): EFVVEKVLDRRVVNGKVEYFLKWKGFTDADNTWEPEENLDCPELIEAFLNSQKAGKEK

| Substance | Kd [µM] |
| --- | --- |
| G9a(179–190) peptide, K185 dimethylated | 9 |
| G9a(179–190) peptide, K185 monomethylated | 28 |
| G9a(179–190) peptide, K185 trimethylated | 14 |
| histone H1.4(18–29) peptide, K26 dimethylated | 52 |
| histone H1.4(18–29) peptide, K26 trimethylated | 21 |
